Target: the molecule itself
Assay: mass photometry

B1: Cavin1 (1-190) (domain or fragment, UniProt O54724 1-190, looked up)
chain: MEDVTLHIVERPYSGFPDASSEGPEPTQGEARATEEPSGTGSDELIKSDQVNGVLVLSLLDKIIGAVDQIQLTQAQLEERQAEMEGAVQSIQGELSKLGKAHATTSNTVSKLLEKVRKVSVNVKTVRGSLERQAGQIKKLEVNEAELLRRRNFKVMIYQDEVKLPAKLSVSKSLKESEALPEKEGDELGE
- stoichiometry N: 3

Source: article doi:10.1101/2021.03.23.436578 (bioRxiv, 2021)
